T1: Ski2 (S. cerevisiae (endogenous in budding …, UniProt P35207 1-1287))
T1 sequence (looked up): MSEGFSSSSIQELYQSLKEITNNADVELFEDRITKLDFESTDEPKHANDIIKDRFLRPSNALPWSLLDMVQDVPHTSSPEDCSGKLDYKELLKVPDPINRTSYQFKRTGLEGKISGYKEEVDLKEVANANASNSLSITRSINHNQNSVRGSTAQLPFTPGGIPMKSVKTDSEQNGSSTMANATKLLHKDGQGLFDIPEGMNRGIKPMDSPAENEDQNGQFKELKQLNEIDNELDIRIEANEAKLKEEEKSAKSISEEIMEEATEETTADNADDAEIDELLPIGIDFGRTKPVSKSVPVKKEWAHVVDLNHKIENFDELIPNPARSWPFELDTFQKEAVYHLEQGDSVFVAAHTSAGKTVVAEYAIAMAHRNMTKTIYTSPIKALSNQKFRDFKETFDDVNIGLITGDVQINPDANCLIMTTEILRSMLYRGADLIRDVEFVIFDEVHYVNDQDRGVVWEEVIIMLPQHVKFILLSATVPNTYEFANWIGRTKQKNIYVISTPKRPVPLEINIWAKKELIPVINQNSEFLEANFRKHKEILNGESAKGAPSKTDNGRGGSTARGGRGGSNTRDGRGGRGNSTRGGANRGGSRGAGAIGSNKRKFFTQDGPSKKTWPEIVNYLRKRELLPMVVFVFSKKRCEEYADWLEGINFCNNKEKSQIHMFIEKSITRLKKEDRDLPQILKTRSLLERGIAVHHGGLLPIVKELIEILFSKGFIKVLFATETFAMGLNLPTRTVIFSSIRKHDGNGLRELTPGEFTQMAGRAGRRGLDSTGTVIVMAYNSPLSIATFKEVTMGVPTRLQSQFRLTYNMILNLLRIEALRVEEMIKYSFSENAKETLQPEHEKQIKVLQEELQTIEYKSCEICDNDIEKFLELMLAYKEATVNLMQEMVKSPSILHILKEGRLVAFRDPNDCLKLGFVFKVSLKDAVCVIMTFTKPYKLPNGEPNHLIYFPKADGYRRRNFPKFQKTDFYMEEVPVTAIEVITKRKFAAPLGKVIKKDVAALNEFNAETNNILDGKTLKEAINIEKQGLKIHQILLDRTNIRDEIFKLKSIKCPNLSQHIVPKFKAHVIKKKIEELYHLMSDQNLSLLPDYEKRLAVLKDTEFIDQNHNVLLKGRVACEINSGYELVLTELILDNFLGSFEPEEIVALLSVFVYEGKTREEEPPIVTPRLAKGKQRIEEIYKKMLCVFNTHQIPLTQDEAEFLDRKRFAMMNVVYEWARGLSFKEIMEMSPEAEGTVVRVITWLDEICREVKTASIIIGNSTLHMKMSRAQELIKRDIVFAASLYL

B1: Ski3 (natural protein, UniProt P17883 1-1432, looked up)
chain: MSDIKQLLKEAKQELTNRDYEETIEISEKVLKLDPDNYFAHIFLGKALSSLPASNNVSSNRNLERATNHYVSAAKLVPDNLLAWKGLFLLFRTTEVVPDILSYDEYFDLCGQYADALLKQEQSQVELINDIKLLKKTHPDCQKAFYQHLKPGSLMAETIGRHLSTPQDALLNLIKILSNIETTEIGKTLSQNRLKLKASDPDYQIKLNSFSWEIIKNSEIDQLYNQLVNILADDQKRSEIENQWLEYRIKVLKSMPLDVKKDFFTKVKEMVEDMVLVNHQSLLAWQKYFEWTDYEDLDNMDAPLIIKYFKKFPKDPLAMILYSWLSSKLSKYDIKSLESANKPPEGHKKTEKETDIKDVDETNEDEVKDRVEDEVKDRVEDEVKDQDEEAKEDEEEDLDDIEIGLLEEEVVTVLTENIVKCKNNILAHRILCQYYLLTKEYEAALPYIKNGISLIAYNIKDLGVHLPLTKREFSLDLATVYTYVDAPKDHNAALKLYDNILSGDFSNIQAKMGKGIIFIERKNWKDAMTLLTQVHEQSPNNLEVLSELSWSKAHMGYMDEALAGLDTVIKGIKGMDLRSIDFRALNLWRQAKVYIMKHASINDAKQENVKCAFKLLIQSIKILDTFAPGFSTLGDIYCHYYKDHLRAFKCYFKAFDLDAGDYTAAKYITETYASKPNWQAASSIASRLIKGEKAKAELRSNNWPFRVVGIAHLEKQEESDSIEWFQSALRVDPNDVESWVGLGQAYHACGRIEASIKVFDKAIQLRPSHTFAQYFKAISLCDVGEYLESLDILEKVCQEAATEESFQIGLVEVLMRCSLDLYSQGFLLKSVSIAKDTIERIKIIISELKCENQQVWIYLSQVLRLFIWIESKVDTLPVESLVSIFENSQFSGSEEIDSVDNIKIDTLLDSTTDDNVSIACKFLILASKYSVSDQKFTDIAGTVRASYWYNIGISELTAFITLKEPQYRDAAIFAFKKSIQLQSNTSETWIGLGIATMDINFRVSQHCFIKATALEPKATNTWFNLAMLGLKKKDTEFAQQVLNKLQSLAPQDSSPWLGMALILEEQGDIIGSSKLFAHSFILSNGRSKAAQFMYAKNVLENHINNGDDERDIETVEKLTTASIALEQFFKKSPDSQFALQCALLTLERLHHYENANELANRLIGILEKKFEKTQDERELFNFAIIKGQFARIHLGLGNFELSIENADLSQGIISESSDEKSMKTKISNHICLGLSYFFLNDFDQTLNQFQELLSISKDSKHLVVLIAKVLYDVGESDTKEIALQELTEYIATSGADLLVTLTIAAMSILDDKREDLSIILEELKALPLSKQIIDKHKDAPYLIEEITKRLYRNDTGKQVWQRSAYFFPNNLKVWERLDKNIQRRIASNGQNKVTAEEMSKLYCESKNLRSIQRGMFLCPWNVTAVKALNECF
B2: Ctf4 (natural protein, UniProt Q01454 1-927, looked up)
chain: MVSVIDKLVFDFGGKTLVSLAPDNNTLCVANKNGLTKILKTNNPEEEPETLDSSKLVSSIKCYSNSHFLMTTMQGDALRYNIDSSQEELLARFALPLRDCCVIHSGKMAVFGGDDLELILLELDDETHKKHAIKIDEQVSQISYNSQMNILAVSMINGKVQIFSLTSTIPNKVHELNDYIVANSYDDTHRDKILSNMMDDIDKDNDNDLSETADPDENNVADPEFCAANRICTRVAWHPKGLHFALPCADDTVKIFSIKGYSLQKTLSTNLSSTKAHFIDLQFDPLRGTYIAAVDLNNKLTVWNWETSEIHYTREFKRKITNIAWKIQADSKTLDLVLGTWSGSIAIVQNLAESVVSNIPDQSVAESSTKHGLFVDSESDLENLEGNDDINKSDKLFSDITQEANAEDVFTQTHDGPSGLSEKRKYNFEDEEDFIDDDDGAGYISGKKPHNEHSYSRVHKTHSFPISLANTGKFRYMPFSPAGTPFGFTDRRYLTMNEVGYVSTVKNSEQYSITVSFFDVGRFREYHFEDLFGYDLCFLNEKGTLFGQSKTGQIQYRPHDSIHSNWTKIIPLQAGERITSVAATPVRVIVGTSLGYFRSFNQFGVPFAVEKTSPIVALTAQNYRVFSVHYSQFHGLSYSLSELGTSSKRYYKRECPLPMSLPNINSDMKKDANLDYYNFNPMGIKSLFFSSYGDPCIFGSDNTLLLLSKWRSPEESKWLPILDSNMEIWKMSGGKETTDIHVWPLALAYDTLNCILVKGKHIWPEFPLPLPSEMEIRMPVFVKSKLLEENKAILNKKNEIGADTEAEEGEEDKEIQIPVSMAAEEEYLRSKVLSELLTDTLENDGEMYGNENEVLAALNGAYDKALLRLFASACSDQNVEKALSLAHELKQDRALTAAVKISERAELPSLVKKINNIREARYEQQLK
B3: Ski8 (natural protein, UniProt Q02793 1-397, looked up)
chain: MSKVFIATANAGKAHDADIFSVSACNSFTVSCSGDGYLKVWDNKLLDNENPKDKSYSHFVHKSGLHHVDVLQAIERDAFELCLVATTSFSGDLLFYRITREDETKKVIFEKLDLLDSDMKKHSFWALKWGASNDRLLSHRLVATDVKGTTYIWKFHPFADESNSLTLNWSPTLELQGTVESPMTPSQFATSVDISERGLIATGFNNGTVQISELSTLRPLYNFESQHSMINNSNSIRSVKFSPQGSLLAIAHDSNSFGCITLYETEFGERIGSLSVPTHSSQASLGEFAHSSWVMSLSFNDSGETLCSAGWDGKLRFWDVKTKERITTLNMHCDDIEIEEDILAVDEHGDSLAEPGVFDVKFLKKGWRSGMGADLNESLCCVCLDRSIRWFREAGGK

What was measured:
Experiment in all cases: native MS
Ski2 = target: T1, Ski2
native MS = target: the molecule itself
Ski3 = target: B1

stoichiometry N (Ski2) | stoichiometry N (Ski3) | Binder | stoichiometry N (native MS)
1 | – | B1 | –
– | – | B2 | 3
2 | 2 | B3 | –
